Laboratory results published in patent US20110028686A1 (published 2011).

Columns and labels:
Assay in all cases: fluorescence polarization
pP53-02 = target: pP53-02
pP53-01 = target: pP53-01
pP53-04 = target: pP53-04
pP53-03 = target: pP53-03

Kd (pP53-02): 766 nM
Kd (pP53-01): 2800 nM
Kd (pP53-04): 334 nM
Kd (pP53-03): 546 nM
B1: GST-MDM2 (other)
chain: MCNTNMSVPTDGAVTTSQIPASEQETLVRPKPLLLKLLKSVGAQKDTYTMKEVLFYLGQYIMTKRLYDEKQQHIVYCSNDLLGDLFGVPSFSVKEHRKIYTMIYRNLVVVNQQESSDSGTSVSENRCHLEGGSDQKDLVQELQEEKPSSSHLVSRPSTSSRRRAISETEENSDELSGERQRKRHKSDS
